Paper PMC10449495

Experiments:
[1] = target: IpaB (invasion plasmid antigen B), affinity tag-free recombinant; test: assembly with LPS, anion-exchange purification of the complex, SDS-PAGE gel densitometry; S. flexneri 2a LPS, 1x (0.56 w LPS/w protein); 8 uM IpaC + 1 uM IpaB in 5.1 M urea, 37 C 2 h; Q Sepharose HP, eluted at 50% Buffer B; %Band of full-size IpaC divided by %Band of full-size IpaB
[2] = target: IpaB (invasion plasmid antigen B), affinity tag-free recombinant; test: assembly with LPS, anion-exchange purification of the complex, SDS-PAGE gel densitometry; S. sonnei LPS, 1x (0.56 w LPS/w protein); 8 uM IpaC + 1 uM IpaB in 5.1 M urea, 37 C 2 h; Q Sepharose HP, eluted at 50% Buffer B; %Band ratio
[3] = target: IpaB (invasion plasmid antigen B), affinity tag-free recombinant; test: assembly with LPS, anion-exchange purification of the complex, SDS-PAGE gel densitometry; S. flexneri 3a LPS, 2x (1.12 w LPS/w protein); 8 uM IpaC + 1 uM IpaB in 5.1 M urea, 37 C 2 h; Q Sepharose HP, eluted at 50% Buffer B; %Band ratio
[4] = target: IpaB (invasion plasmid antigen B), affinity tag-free recombinant; test: assembly with LPS, anion-exchange purification of the complex, SDS-PAGE gel densitometry; S. flexneri 6 LPS, 1x (0.56 w LPS/w protein); 8 uM IpaC + 1 uM IpaB in 5.1 M urea, 37 C 2 h; Q Sepharose HP, eluted at 50% Buffer B; %Band ratio
[5] = target: IpaB (invasion plasmid antigen B), affinity tag-free recombinant; test: assembly with LPS, anion-exchange purification of the complex, SDS-PAGE gel densitometry; S. sonnei LPS, 2x (1.12 w LPS/w protein); 8 uM IpaC + 1 uM IpaB in 5.1 M urea, 37 C 2 h; Q Sepharose HP, eluted at 50% Buffer B; %Band ratio
[6] = target: IpaB (invasion plasmid antigen B), affinity tag-free recombinant; test: assembly with LPS, anion-exchange purification of the complex, SDS-PAGE gel densitometry; S. flexneri 3a LPS, 8x (4.48 w LPS/w protein); 8 uM IpaC + 1 uM IpaB in 5.1 M urea, 37 C 2 h; Q Sepharose HP, eluted at 50% Buffer B; %Band ratio
[7] = target: IpaB (invasion plasmid antigen B), affinity tag-free recombinant; test: assembly with LPS, anion-exchange purification of the complex, SDS-PAGE gel densitometry; S. flexneri 6 LPS, 4x (2.24 w LPS/w protein); 8 uM IpaC + 1 uM IpaB in 5.1 M urea, 37 C 2 h; Q Sepharose HP, eluted at 50% Buffer B; %Band ratio
[8] = target: IpaB (invasion plasmid antigen B), affinity tag-free recombinant; test: assembly with LPS, anion-exchange purification of the complex, SDS-PAGE gel densitometry; S. flexneri 2a LPS, 8x (4.48 w LPS/w protein); 8 uM IpaC + 1 uM IpaB in 5.1 M urea, 37 C 2 h; Q Sepharose HP, eluted at 50% Buffer B; %Band ratio
[9] = target: IpaB (invasion plasmid antigen B), affinity tag-free recombinant; test: assembly with LPS, anion-exchange purification of the complex, SDS-PAGE gel densitometry; S. flexneri 3a LPS, 1x (0.56 w LPS/w protein); 8 uM IpaC + 1 uM IpaB in 5.1 M urea, 37 C 2 h; Q Sepharose HP, eluted at 50% Buffer B; %Band ratio
[10] = target: IpaB (invasion plasmid antigen B), affinity tag-free recombinant; test: assembly with LPS, anion-exchange purification of the complex, SDS-PAGE gel densitometry; S. sonnei LPS, 8x (4.48 w LPS/w protein); 8 uM IpaC + 1 uM IpaB in 5.1 M urea, 37 C 2 h; Q Sepharose HP, eluted at 50% Buffer B; %Band ratio
[11] = target: IpaB (invasion plasmid antigen B), affinity tag-free recombinant; test: assembly with LPS, anion-exchange purification of the complex, SDS-PAGE gel densitometry; S. flexneri 2a LPS, 2x (1.12 w LPS/w protein); 8 uM IpaC + 1 uM IpaB in 5.1 M urea, 37 C 2 h; Q Sepharose HP, eluted at 50% Buffer B; %Band ratio
[12] = target: IpaB (invasion plasmid antigen B), affinity tag-free recombinant; test: assembly with LPS, anion-exchange purification of the complex, SDS-PAGE gel densitometry; S. flexneri 2a LPS, 4x (2.24 w LPS/w protein); 8 uM IpaC + 1 uM IpaB in 5.1 M urea, 37 C 2 h; Q Sepharose HP, eluted at 50% Buffer B; %Band ratio
[13] = target: IpaB (invasion plasmid antigen B), affinity tag-free recombinant; test: assembly with LPS, anion-exchange purification of the complex, SDS-PAGE gel densitometry; S. flexneri 6 LPS, 8x (4.48 w LPS/w protein); 8 uM IpaC + 1 uM IpaB in 5.1 M urea, 37 C 2 h; Q Sepharose HP, eluted at 50% Buffer B; %Band ratio
[14] = target: IpaB (invasion plasmid antigen B), affinity tag-free recombinant; test: assembly with LPS, anion-exchange purification of the complex, SDS-PAGE gel densitometry; S. flexneri 6 LPS, 2x (1.12 w LPS/w protein); 8 uM IpaC + 1 uM IpaB in 5.1 M urea, 37 C 2 h; Q Sepharose HP, eluted at 50% Buffer B; %Band ratio
[15] = target: IpaB (invasion plasmid antigen B), affinity tag-free recombinant; test: assembly with LPS, anion-exchange purification of the complex, SDS-PAGE gel densitometry; S. sonnei LPS, 4x (2.24 w LPS/w protein); 8 uM IpaC + 1 uM IpaB in 5.1 M urea, 37 C 2 h; Q Sepharose HP, eluted at 50% Buffer B; %Band ratio
[16] = target: IpaB (invasion plasmid antigen B), affinity tag-free recombinant; test: assembly with LPS, anion-exchange purification of the complex, SDS-PAGE gel densitometry; S. flexneri 3a LPS, 4x (2.24 w LPS/w protein); 8 uM IpaC + 1 uM IpaB in 5.1 M urea, 37 C 2 h; Q Sepharose HP, eluted at 50% Buffer B; %Band ratio

B1: IpaC (invasion plasmid antigen C), affinity tag-free recombinant (natural protein)
chain: MEIQNTKPTQTLYTDISTKQTQSSSETQKSQNYQQIAAHIPLNVGKNPVLTTTLNDDQLLKLSEQVQHDSEIIARLTDKKMKDLSEMSHTLTPENTLDISSLSSNAVSLIISVAVLLSALRTAETKLGSQLSLIAFDATKSAAENIVRQGLAALSSSITGAVTQVGITGIGAKKTHSGISDQKGALRKNLATAQSLEKELAGSKLGLNKQIDTNITSPQTNSSTKFLGKNKLAPDNISLSTEHKTSLSSPDISLQDKIDTQRRTYELNTLSAQQKQNIGRATMETSAVAGNISTSGGRYASALEEEEQLISQASSKQAEEASQVSKEASQATNQLIQKLLNIIDSINQSKNSAASQIAGNIRA
IpaC:IpaB ratio in the complex with LPS (gel densitometry) [1]: 3.8 IpaC:IpaB
IpaC:IpaB ratio in the complex with LPS (gel densitometry) [2]: 2.6 IpaC:IpaB
IpaC:IpaB ratio in the complex with LPS (gel densitometry) [3]: 3.8 IpaC:IpaB
IpaC:IpaB ratio in the complex with LPS (gel densitometry) [4]: 2.1 IpaC:IpaB
IpaC:IpaB ratio in the complex with LPS (gel densitometry) [5]: 5.6 IpaC:IpaB
IpaC:IpaB ratio in the complex with LPS (gel densitometry) [6]: 5.8 IpaC:IpaB
IpaC:IpaB ratio in the complex with LPS (gel densitometry) [7]: 4 IpaC:IpaB
IpaC:IpaB ratio in the complex with LPS (gel densitometry) [8]: 9.4 IpaC:IpaB
IpaC:IpaB ratio in the complex with LPS (gel densitometry) [9]: 2.5 IpaC:IpaB
IpaC:IpaB ratio in the complex with LPS (gel densitometry) [10]: 7.2 IpaC:IpaB
IpaC:IpaB ratio in the complex with LPS (gel densitometry) [11]: 6.9 IpaC:IpaB
IpaC:IpaB ratio in the complex with LPS (gel densitometry) [12]: 7.8 IpaC:IpaB
IpaC:IpaB ratio in the complex with LPS (gel densitometry) [13]: 3.9 IpaC:IpaB
IpaC:IpaB ratio in the complex with LPS (gel densitometry) [14]: 4.1 IpaC:IpaB
IpaC:IpaB ratio in the complex with LPS (gel densitometry) [15]: 9.4 IpaC:IpaB
IpaC:IpaB ratio in the complex with LPS (gel densitometry) [16]: 5.8 IpaC:IpaB
